{"source": "paper PMC9352680", "about": "“A comprehensive thermodynamic model for RNA binding by the Saccharomyces cerevisiae Pumilio protein PUF4”", "binders": {"B1": {"name": "Id_ii_S4_P5E.4_K5.3_C5.2_[C-2A]_H5.3_A5.1_F5.1_T5.2_[A12G] (ssRNA)", "RNA": "UUUGACAACUGAUCGUUCUUUCUAUACACUUAUUAUGUUCUUUCUCGAUCAGUUGUCUUU"}, "B2": {"name": "Id_ii_S4_P5E.4_K5.3_C5.2_[T-1G]_H5.3_A5.1_F5.1_T5.2 (ssRNA)", "RNA": "B1 RNA with A24C, U25G, G37A"}, "B3": {"name": "Id_ii_S4_P5E.4_K5.3_C5.2_[C-2A]_H5.3_A5.1_F5.1_T5.2_[A12T] (ssRNA)", "RNA": "B1 RNA with G37U"}, "B4": {"name": "Id_ii_S4_P5E.4_K5.3_C5.2_H5.3_A5.1_F5.1_T5.2_[T11G]_[A12C] (ssRNA)", "RNA": "B1 RNA with A24C, U36G, G37C"}, "B5": {"name": "Id_ii_S4_P5E.4_K5.3_C5.2_[T-1C]_H5.3_A5.1_F5.1_T5.2_[T11C]_[A12T] (ssRNA)", "RNA": "B1 RNA with A24C, U25C, U36C, G37U"}, "B6": {"name": "Id_ii_S4_P5E.4_K5.3_C5.2_[T-1C]_H5.3_A5.1_F5.1_T5.2_[A12G] (ssRNA)", "RNA": "B1 RNA with A24C, U25C"}, "B7": {"name": "Id_ii_S4_P5E.4_K5.3_C5.2_H5.3_A5.1_F5.1_T5.2_[A12T] (ssRNA)", "RNA": "B1 RNA with A24C, G37U"}}, "note": "Residue numbers refer to the chain shown, from its start. Numbers in names are those of the source.", "data": [{"molecular_target": "T1, PUF4 RNA-binding domain (Saccharomyces cerevisiae, UniProt P25339 537-888)", "T1 sequence": "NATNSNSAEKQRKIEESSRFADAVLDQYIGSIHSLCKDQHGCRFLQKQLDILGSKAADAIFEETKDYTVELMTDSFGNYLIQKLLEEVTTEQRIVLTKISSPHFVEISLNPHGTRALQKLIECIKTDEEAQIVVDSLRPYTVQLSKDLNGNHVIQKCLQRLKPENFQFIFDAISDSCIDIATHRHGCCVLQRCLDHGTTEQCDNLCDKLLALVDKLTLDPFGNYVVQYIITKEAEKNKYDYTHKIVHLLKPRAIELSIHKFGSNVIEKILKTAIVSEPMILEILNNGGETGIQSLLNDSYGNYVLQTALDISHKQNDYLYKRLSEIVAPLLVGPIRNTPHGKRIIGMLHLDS", "assay": "Mg; RNA-MaP; 20 mM Na-HEPES pH 7.4, 30 mM KOAc, 0.75 mM MgCl2, 0.1% Tween-20, 5% glycerol, 0.1 mg/mL BSA, 2 mM DTT; 25 C; 0.0125-409.6 nM protein", "conditions": "tags: N-His6-TEV cleaved; C-SNAP kept, Cy3B-labelled; label: tethered on chip by stalled RNA polymerase", "units": {"Kd": "nM"}, "values": [{"binder": "UCUCUUUCUUGUAUAUUAUUUCUCUU (ssRNA)", "note": "[Id_iii_S1_P4E.5_K4.1_C4.3_H4.1_A4.1_F4.1_T4.2_[G10T]]", "Kd": 0.649}, {"binder": "UCUCUUUCGUAUAUAUAUAUCUCUU (ssRNA)", "note": "[Id_iii_S1_P3E.6_K3.2_C3.3_[T-1G]_H3.2_A3.1_F3.1_T3.2]", "Kd": 502}, {"binder": "UCUCUUACUACACUAUAUAUCUCUU (ssRNA)", "note": "[Id_iii_S1_P3E.7_K3.3_C3.3_[T-3A]_H3.3_A3.1_F3.1_T3.2]", "Kd": 900}, {"binder": "UCUCUUUAUUGUAAAUAUAUCUCUU (ssRNA)", "note": "[Id_iii_S1_P3E.8_K3.4_C3.3_[C-2A]_H3.1_A3.2_F3.1_T3.2]", "Kd": 18.2}, {"binder": "UCUCUUUUUUGUAUAUUAGUUCUCUU (ssRNA)", "note": "[Id_iii_S1_P4E.5_K4.1_C4.3_[C-2T]_H4.1_A4.1_F4.1_T4.2]", "Kd": 0.395}, {"binder": "UCUCUUUCUUGUAAAUAUGUCUCUU (ssRNA)", "note": "[Id_iii_S1_P3E.8_K3.4_C3.3_H3.1_A3.2_F3.1_T3.2_[A10G]]", "Kd": 28.7}, {"binder": "UCUCUUUCUUGUAUAUAUCUCUCUU (ssRNA)", "note": "[Id_iii_S1_P3E.5_K3.1_C3.3_H3.1_A3.1_F3.1_T3.2_[A10C]]", "Kd": 6.06}, {"binder": "UCUCUUUCUUGUAUAUUACUUCUCUU (ssRNA)", "note": "[Id_iii_S1_P4E.5_K4.1_C4.3_H4.1_A4.1_F4.1_T4.2_[G10C]]", "Kd": 1.02}, {"binder": "UCUCUUUCUUGUAAAUAUCUCUCUU (ssRNA)", "note": "[Id_iii_S1_P3E.8_K3.4_C3.3_H3.1_A3.2_F3.1_T3.2_[A10C]]", "Kd": 27.6}, {"binder": "UCUCUUUCUUAUAUAUACAUCUCUU (ssRNA)", "note": "[Id_iii_S1_P3E.6_K3.2_C3.3_H3.2_A3.1_F3.1_T3.2_[T9C]]", "Kd": 972}, {"binder": "UCUCUUUCUUGUAAAUAAAUCUCUU (ssRNA)", "note": "[Id_iii_S1_P3E.8_K3.4_C3.3_H3.1_A3.2_F3.1_T3.2_[T9A]]", "Kd": 40.2}, {"binder": "UCUCUUUCUUGUAUAUAUGUCUCUU (ssRNA)", "note": "[Id_iii_S1_P3E.5_K3.1_C3.3_H3.1_A3.1_F3.1_T3.2_[A10G]]", "Kd": 7.51}, {"binder": "UCUCUUUAUUGUAUAUUAGUUCUCUU (ssRNA)", "note": "[Id_iii_S1_P4E.5_K4.1_C4.3_[C-2A]_H4.1_A4.1_F4.1_T4.2]", "Kd": 0.362}, {"binder": "UCUCUUUCCUGUAUAUAUAUCUCUU (ssRNA)", "note": "[Id_iii_S1_P3E.5_K3.1_C3.3_[T-1C]_H3.1_A3.1_F3.1_T3.2]", "Kd": 4.14}, {"binder": "UCUCUUACUUAUAUAUAUAUCUCUU (ssRNA)", "note": "[Id_iii_S1_P3E.6_K3.2_C3.3_[T-3A]_H3.2_A3.1_F3.1_T3.2]", "Kd": 113}, {"binder": "UCUCUUUCUACACUAUAUUUCUCUU (ssRNA)", "note": "[Id_iii_S1_P3E.7_K3.3_C3.3_H3.3_A3.1_F3.1_T3.2_[A10T]]", "Kd": 2010}, {"binder": "UCUCUUUGUCUAAUUAUCUCUU (ssRNA)", "note": "[Ib_S1_P5E.1_K5.1_C5.1_H5.1_[A4C]_A5.1_[T6A]_F5.1_T5.1]", "Kd": 115}, {"binder": "UCUCUUUCUUAUAUAUUACUUCUCUU (ssRNA)", "note": "[Id_iii_S1_P4E.6_K4.2_C4.3_H4.2_A4.1_F4.1_T4.2_[G10C]]", "Kd": 15.9}, {"binder": "B1", "Kd": 1530}, {"binder": "B2", "Kd": 1170}, {"binder": "B3", "Kd": 467}, {"binder": "B4", "Kd": "> 2300"}, {"binder": "B5", "Kd": "> 2300"}, {"binder": "B6", "Kd": "> 2300"}, {"binder": "B7", "Kd": "> 2300"}, {"binder": "UCUCUUUGUGUCAUUAUCUCUU (ssRNA)", "note": "[Ib_S1_P5E.1_K5.1_C5.1_H5.1_[A4G]_A5.1_[T6C]_F5.1_T5.1]", "Kd": 30.7}, {"binder": "UCUCUUUAUUGUAUAUAUAUCUCUU (ssRNA)", "note": "[Id_iii_S1_P3E.5_K3.1_C3.3_[C-2A]_H3.1_A3.1_F3.1_T3.2]", "Kd": 9.45}, {"binder": "UCUCUUUCAUGUAUAUAUAUCUCUU (ssRNA)", "note": "[Id_iii_S1_P3E.5_K3.1_C3.3_[T-1A]_H3.1_A3.1_F3.1_T3.2]", "Kd": 6.5}, {"binder": "UCUCUUGCUUAUAUAUAUAUCUCUU (ssRNA)", "note": "[Id_iii_S1_P3E.6_K3.2_C3.3_[T-3G]_H3.2_A3.1_F3.1_T3.2]", "Kd": 380}, {"binder": "UCUCUUUUUUGUAUAUAUAUCUCUU (ssRNA)", "note": "[Id_iii_S1_P3E.5_K3.1_C3.3_[C-2T]_H3.1_A3.1_F3.1_T3.2]", "Kd": 6.24}, {"binder": "UCUCUUCCUUGUAUAUUAGUUCUCUU (ssRNA)", "note": "[Id_iii_S1_P4E.5_K4.1_C4.3_[T-3C]_H4.1_A4.1_F4.1_T4.2]", "Kd": 0.347}]}]}
